1 substance from PMC6423718 can be followed below.

The assay has as its target bZIP domain of chicken CREB3 (chCREB3), Residues 206-280, His-tagged (chicken). In words: crystal structure; DNA-free form; sitting-drop vapor diffusion at 4°C, 43% v/v MPD, 100 mM tri-sodium citrate pH 5.6, 10 mM magnesium chloride; molecular replacement; 3.95 Å.

By stoichiometry N is commonly meant a count of units in the complex or per binding partner. In the case of “bZIP domain of chicken CREB3 (chCREB3), Residues 206-280, His-tagged (domain or fragment)”, the stoichiometry N was 2.
